In patent US20050130151 one finds Kd data, which are given here for one substance.

In the series the test system is FMRP RGG box (isolated, C-terminal deletion construct) (Homo sapiens), Q06787-9. Description: filter.

Substance 28S rRNA fragment (230 nt) gave a Kd of over 5 µM.
